Data as given in patent US20210388043A1.

Molecular target: CD47 (human) (UniProt Q08722)
Assay: cell binding (FACS); PC-3 cells
Conditions: Fc fusion

- EC50: 0.58 µg/mL
Substance: SIRPαD1-Fc
